Experimental data taken from publication PMC7057333 (ACS Omega, 2020).
Where two headings read alike, the source gives them in different places. Numbered stars: 1 amine (or outer) side, 2 acyl side, 3 side chain; on linkers, the order of the positions; unused ones are H or OH. Bridge positions count the residues as written; N and C are the ends. Square brackets hold non-standard residues; d marks the D form. Ends that are not written are not given here. dNle(6-ylidene) = O=C([C@@H](CCCC=[*:3])N[*:1])[*:2]; Gly(pent-4-enyl) = C=CCCC[C@H](N)C(=O)O; Lys(N3) = [N-]=[N+]=NCCCC[C@H](N)C(=O)O; hPhe = N[C@@H](CCc1ccccc1)C(=O)O; Cit = NC(=O)NCCC[C@H](N)C(=O)O; AllylGly = C=CC[C@H](N)C(=O)O; Aoc(2) = CCCCCC[C@H](N)C(=O)O; Pra = C#CC[C@H](N)C(=O)O

How the values were obtained:
[1] = molecular target: T1, LSD1_(172-833), lysine-specific demethylase 1 (human, UniProt O60341-1 172-833); experiment: SPR; LSD1 immobilised by amine coupling on CM5 (12 000-15 000 RU), peptides injected; TBS-T (25 mM Tris, 150 mM HCl as printed, 0.05% Tween-20, 1 mM DTT, pH 8.0), 15 °C; 1:1 Langmuir model or steady state; highest tested concentration 200 μM; details: both partners purified
[2] = molecular target: T1, LSD1_(172-833), lysine-specific …; experiment: as above; details: both partners purified; remark: listed apart in the source
[3] = molecular target: T1, LSD1_(172-833), lysine-specific …; experiment: enzyme inhibition kinetics (HRP-coupled fluorescence demethylation assay); 25 nM LSD1, substrate H3K4me1_(1-21), 25 mM Tris, 50 mM NaCl, 0.1 mg/mL BSA, pH 8, 1% DMSO; Ki by global fit of competitive inhibition for 1, 11, 24, 28, 31, 33, 34, else from IC50 by Cheng-Prusoff (substrate 20 μM); details: both partners purified
[4] = molecular target: T1, LSD1_(172-833), lysine-specific …; experiment: cell-based or functional assay
[5] = molecular target: T2, LSD1_(172-833), lysine-specific demethylase 1 (human, UniProt O60341-1 172-833); experiment: cell-based or functional assay; remark: listed apart in the source
[6] = molecular target: T2, LSD1_(172-833), lysine-specific …; experiment: enzyme inhibition kinetics (HRP-coupled fluorescence demethylation assay); 25 nM LSD1, substrate H3K4me1_(1-21), 25 mM Tris, 50 mM NaCl, 0.1 mg/mL BSA, pH 8, 1% DMSO; Ki by global fit of competitive inhibition for 1, 11, 24, 28, 31, 33, 34, else from IC50 by Cheng-Prusoff (substrate 20 μM); details: both partners purified; remark: listed apart in the source
[7] = molecular target: T2, LSD1_(172-833), lysine-specific …; experiment: cell-based or functional assay; remark: listed apart in the source
[8] = molecular target: T2, LSD1_(172-833), lysine-specific …; experiment: SPR; LSD1 immobilised by amine coupling on CM5 (12 000-15 000 RU), peptides injected; TBS-T (25 mM Tris, 150 mM HCl as printed, 0.05% Tween-20, 1 mM DTT, pH 8.0), 15 °C; 1:1 Langmuir model or steady state; highest tested concentration 200 μM; details: both partners purified; remark: listed apart in the source

ARTKQTARKST-NH2 [H3_(1-11) K4 (peptide 9), wild-type 11-mer]
Kd [1]: > 100 µM

PRTMQTARKST-NH2 [A1P-substituted H3_(1-11) K4M (peptide 11)]
Kd [2]: 10 µM | Ki [3]: 8 µM

ARTMQTARKST [H3_(1-11) K4M (peptide 4)]
IC50 of inhibition of LSD1 demethylation of H3_(1-21) K4(Me), enzyme activity assay [4]: > 100 µM

AR[Gly(pent-4-enyl)]MQ[Gly(pent-4-enyl)]ARKST-NH2 [peptide 22, linear precursor of 23 (pentenylglycine at positions 3 and 6 of H3_(1-11) K4M)]
% inhibition of LSD1 demethylase activity at 100 μM peptide [5]: 100%

AR[Gly(pent-4-enyl)]MQ[Gly(pent-4-enyl)]ARKST-NH2 (staple 3-6) [stapled macrocycle 23 (8-carbon olefin bridge between residues 3 and 6)]
% inhibition of LSD1 demethylase activity at 100 μM peptide [5]: 75%

AR[dNle(6-ylidene)]MQ[dNle(6-ylidene)]ARKST-NH2 (staple 3-6) [stapled macrocycle 26 (stereoisomer of 23, D-pentenyl glycine at 3 and 6)]
% inhibition of LSD1 demethylase activity at 100 μM peptide [5]: 90%

A[Cit]EMQKARKST-NH2 (lactam 3-6) [lactam 33 (Arg2Cit-substituted analogue of peptide 28)]
Ki [6]: 4.2 µM | % inhibition of LSD1 demethylase activity at 100 μM peptide [7]: 97%

AREMQKA[Cit]KST-NH2 (lactam 3-6) [lactam 34 (Arg8Cit-substituted analogue of peptide 28)]
Ki [6]: 8 µM | % inhibition of LSD1 demethylase activity at 100 μM peptide [7]: 97%

AR[Lys(N3)]MQ[Pra]ARKST-NH2 (triazole 3-6) [triazole 35 (triazole-bridged H3_(1-11) K4M, azidolysine at 3, propargylglycine at 6)]
Ki [6]: > 100 µM | % inhibition of LSD1 demethylase activity at 100 μM peptide [7]: < 30%

AR[Pra]MQ[Lys(N3)]ARKST-NH2 (triazole 3-6) [triazole 36 (triazole-bridged H3_(1-11) K4M, propargylglycine at 3, azidolysine at 6)]
Ki [6]: 30 µM | % inhibition of LSD1 demethylase activity at 100 μM peptide [7]: 70%

[AllylGly]R[AllylGly]MQTARKST-NH2 [peptide 18, linear precursor of 19 (allylglycine at positions 1 and 3 of H3_(1-11) K4M)]
% inhibition of LSD1 demethylase activity at 100 μM peptide [5]: 98%

[AllylGly]R[AllylGly]MQTARKST-NH2 (staple 1-3) [stapled peptide 19 (Ala1-Thr3 cyclization, 4-carbon olefin bridge)]
% inhibition of LSD1 demethylase activity at 100 μM peptide [5]: 100%

AR[AllylGly]MQ[AllylGly]ARKST-NH2 (staple 3-6) [stapled peptide 21 (Thr3-Thr6 cyclization, 4-carbon olefin bridge)]
% inhibition of LSD1 demethylase activity at 100 μM peptide [5]: 95%

ART[Aoc(2)]QTARKST-NH2 [H3_(1-11) with 2-S-amino octanoic acid at position 4 (peptide 16)]
Kd [8]: > 200 µM

ART[hPhe]QTARKST-NH2 [H3_(1-11) with L-homophenylalanine at position 4 (peptide 17)]
Kd [8]: > 200 µM

ARTMQTARKSTGGKA [H3_(1-15) K4M (peptide 2)]
Kd [1]: 5 µM

ARTMQTARKSTGG [H3_(1-13) K4M (peptide 3)]
Kd [1]: 36 µM

ARTMQTARK [H3_(1-9) K4M (peptide 5)]
Kd [1]: > 200 µM

ARTMQTA [H3_(1-7) K4M (peptide 6)]
Kd [1]: > 200 µM

Ac-RTMQTARKSTGGKAPRKQLA [H3_(2-21) K4M (peptide 7)]
Kd [1]: 45 µM
